This note sets out measurements from the Immune Epitope Database (IEDB).

For assay [1], the target named is HLA-A*02:01. The experiment in a line: IEDB peptide-MHC binding, purified MHC/competitive/radioactivity; filed as Kd, often an IC50 or EC50 that approximates it; ≥ and ≤ were set here for values at or beyond the usual limits of such assays.
The target in another assay is HLA-B*46:01. The experiment in a line: IEDB peptide-MHC binding, purified MHC/competitive/fluorescence; filed as Kd, often an IC50 or EC50 that approximates it; ≥ and ≤ were set here for values at or beyond the usual limits of such assays. To be noted: source organism: Brucella melitensis bv. 1 str. 16M.
In a further assay the target is HLA-B*15:17. The experiment in a line: IEDB peptide-MHC binding, purified MHC/direct/fluorescence; filed as Kd, often an IC50 or EC50 that approximates it; ≥ and ≤ were set here for values at or beyond the usual limits of such assays.
In a further assay the target is HLA-B*57:01. The assay is described as above.
The target of a further assay is HLA-B*58:01. The assay is described as above.
The target in another assay is HLA-A*02:02. Description: IEDB peptide-MHC binding, purified MHC/competitive/radioactivity; filed as Kd, often an IC50 or EC50 that approximates it; ≥ and ≤ were set here for values at or beyond the usual limits of such assays.
A further assay has as its target HLA-A*68:02. The description is as above.
The next assay addresses HLA-A*02:03. Described as above.
The next assay addresses HLA-A*02:06. The assay is described as above.
The target of assay [2] is HLA-A*11:01. The experiment in a line: IEDB peptide-MHC binding, purified MHC/competitive/fluorescence; ≥ and ≤ were set here for values at or beyond the usual limits of such assays.
The target in a further assay is HLA-B*15:03. The experiment in a line: IEDB peptide-MHC binding, purified MHC/competitive/radioactivity; filed as Kd, often an IC50 or EC50 that approximates it; ≥ and ≤ were set here for values at or beyond the usual limits of such assays. To be noted: source organism: Vaccinia virus WR.
The target in assay [3] is HLA-B*40:01. The description is as above.
Another assay addresses HLA-B*44:03. Described as above.
Another assay concerns the target HLA-B*45:01. Described as above.
A further assay has as its target HLA-B*40:02. The description is as above.
For assay [4], the target named is HLA-B*44:02. Described as above.
In the next assay the target is HLA-B*18:01. The description is as above.
For assay [5], the target named is HLA-B*40:01. The experiment in a line: IEDB peptide-MHC binding, purified MHC/direct/fluorescence; filed as Kd, often an IC50 or EC50 that approximates it; ≥ and ≤ were set here for values at or beyond the usual limits of such assays. To be noted: source organism: Giardia lamblia ATCC 50803.
Another assay has as its target HLA-A*26:01. Described as above. To be noted: source organism: Giardia lamblia ATCC 50803.
The next assay addresses HLA-B*27:05. Described as above. To be noted: source organism: Giardia lamblia ATCC 50803.
In assay [6] the target is HLA-A*11:01. Described as above. The following applies: source organism: Giardia lamblia ATCC 50803.
The target in a further assay is HLA-A*31:01. The assay is described as above. The following applies: source organism: Giardia lamblia ATCC 50803.
For assay [7], the target named is HLA-A*02:01. The assay is described as above. To be noted: source organism: Giardia lamblia ATCC 50803.
The target in another assay is HLA-A*69:01. The assay is described as above. To be noted: source organism: Giardia lamblia ATCC 50803.
For another assay, the target named is HLA-A*03:01. The assay is described as above. To be noted: source organism: Giardia lamblia ATCC 50803.
The target of a further assay is HLA-B*07:02. The description is as above. To be noted: source organism: Giardia lamblia ATCC 50803.
The target of a further assay is HLA-B*15:01. The description is as above. To be noted: source organism: Giardia lamblia ATCC 50803.
The next assay deals with HLA-B*08:01. The description is as above. To be noted: source organism: Giardia lamblia ATCC 50803.
For assay [8], the target named is HLA-B*44:02. The assay is described as above. To be noted: source organism: Giardia lamblia ATCC 50803.
Setting [9] is: source organism: Brucella melitensis.
[10] abbreviates: source organism: Trypanosoma cruzi.
[11] abbreviates: source organism: Mammarenavirus guanaritoense.
Setting [12] is: source organism: Mammarenavirus brazilense.
The mark [13] stands for this setting: source organism: Mammarenavirus lassaense.
The mark [14] stands for this setting: source organism: Giardia lamblia ATCC 50803.

Turning to FLTYLDVSV, the Kd with HLA-A*02:01 [1] (source organism: Homo sapiens) is at most 1 nM.

For WITQCFLPV, in the assay with HLA-A*02:01 [1] (source organism: Homo sapiens), the Kd amounted to 173 nM.

For IAASNLEQF, the Kd worked out at 47.9 nM with HLA-B*46:01, 22.6 nM in the assay with HLA-B*15:17 (setting [9]), 202 nM with HLA-B*57:01 (setting [9]) and 50 nM in the assay with HLA-B*58:01 (setting [9]).

For GLLPLLLLLG, the equilibrium dissociation constant (Kd) with HLA-A*02:02 (setting [10]) amounted to 79.2 nM; with HLA-A*68:02 (setting [10]), 7010 nM; with HLA-A*02:01 [1] (setting [10]), 2.69 nM; with HLA-A*02:03 (setting [10]), 109 nM; with HLA-A*02:06 (setting [10]), 15.3 nM.

KLTKDFSAL: the Kd is 20.5 nM with HLA-A*02:02 (source organism: Homo sapiens), 550 nM with HLA-A*02:01 [1] (source organism: Homo sapiens) and 34.2 nM with HLA-A*02:03 (source organism: Homo sapiens).

Sequence EIFSAWISH returned an IC50 with HLA-A*11:01 [2] (source organism: Variola virus) of 22600 nM.

As to TMVNSLTYF, the equilibrium dissociation constant (Kd) in the assay with HLA-B*15:03 was found to be 0.126 nM.

LGGILPWTK yielded an IC50 in the assay with HLA-A*11:01 [2] (source organism: Vaccinia virus WR) of 536 nM.

As to SLADEAEVHL, in the assay with HLA-A*02:01 [1] (source organism: Homo sapiens), the Kd is 29 nM.

For ISAFPKNDF, the Kd with HLA-B*15:03 worked out at 663 nM.

RLVRPFLVV: in the assay with HLA-B*15:03, the Kd worked out at 15.9 nM.

With TQALQLFLR, in the assay with HLA-A*11:01 [2] (source organism: Sudan ebolavirus), the IC50 was 2530 nM.

For the sequence LENAQPGLL, the Kd was 1030 nM in the assay with HLA-B*40:01 [3] (setting [11]); 13800 nM with HLA-B*44:03 (setting [11]); at least 48000 nM in the assay with HLA-B*45:01 (setting [11]); 182 nM with HLA-B*40:02 (setting [11]); 6080 nM in the assay with HLA-B*44:02 [4] (setting [11]); 10700 nM in the assay with HLA-B*18:01 (setting [11]).

Turning to GDNEIEYGF, the Kd amounted to 9480 nM with HLA-B*40:01 [3] (setting [12]); 17000 nM with HLA-B*44:03 (setting [12]); 12200 nM with HLA-B*45:01 (setting [12]); 1280 nM with HLA-B*40:02 (setting [12]); 4340 nM with HLA-B*44:02 [4] (setting [12]); 4070 nM with HLA-B*18:01 (setting [12]).

In the case of GEPKESTPM, the Kd was 1180 nM with HLA-B*40:01 [3] (setting [13]); at least 78100 nM in the assay with HLA-B*44:03 (setting [13]); at least 77700 nM with HLA-B*45:01 (setting [13]); 191 nM with HLA-B*40:02 (setting [13]); 9340 nM with HLA-B*44:02 [4] (setting [13]); at least 77500 nM with HLA-B*18:01 (setting [13]).

For the sequence ISYTYNDNW, the Kd in the assay with HLA-B*40:01 [5] is at least 20000 nM; with HLA-A*26:01 it was at least 20000 nM; with HLA-B*27:05 it was at least 20000 nM; with HLA-B*15:17 (setting [14]) it was 1.4 nM; with HLA-A*11:01 [6], at least 20000 nM; with HLA-A*31:01 it was at least 20000 nM. Besides, the Kd in the assay with HLA-A*02:01 [7] is at least 20000 nM; in the assay with HLA-A*69:01, at least 20000 nM; in the assay with HLA-B*57:01 (setting [14]) it was 64.1 nM; with HLA-A*03:01 it was at least 20000 nM; in the assay with HLA-B*07:02 it was at least 20000 nM; in the assay with HLA-B*15:01, at least 20000 nM. Moreover, the Kd is 11.8 nM in the assay with HLA-B*58:01 (setting [14]), at least 20000 nM in the assay with HLA-B*08:01 and at least 20000 nM with HLA-B*44:02 [8].

As to ELEQTYHAKL, the Kd in the assay with HLA-A*02:02 (source organism: Homo sapiens) is 2840 nM; with HLA-A*68:02 (source organism: Homo sapiens), 9730 nM; with HLA-A*02:01 [1] (source organism: Homo sapiens), at least 40200 nM; in the assay with HLA-A*02:03 (source organism: Homo sapiens), at least 94300 nM; in the assay with HLA-A*02:06 (source organism: Homo sapiens) it was at least 71200 nM.
